Assay results reported in patent publication US8900593B2 (Indiana University Research and Technology Corporation, priority 2007, dated 2014).
Where two headings read alike, the source gives them in different places. Bridges are numbered along the chain shown (N, C = ends). Where no end group is shown, it is not given here. [ ]: non-standard residue; d: D form. PEG = not defined here; Aib = CC(C)(N)C(=O)O

Experiments:
glucagon receptor = target: T1, glucagon receptor (Homo sapiens, UniProt P47871); test: Functional assay-cAMP synthesis, luciferase reporter in HEK293 cells co-transfected with glucagon receptor; assay type: cell-based; conditions: for Parent w/PEG % Potency Relative to Native GR / Parent w/o PEG % Potency Relative to Native GR: Table 12; for Parent w/PEG % Potency Relative to Native GR: pegylated peptide; for Parent w/o PEG % Potency Relative to Native GR: peptide without PEG; for Percent Potency Relative to Native Ligand GRec: relative to native glucagon
T1 construct: expressed in transfected cells; host or cells: HEK293

GLP-1 receptor = target: T2, GLP-1 receptor (Homo sapiens, UniProt P43220); test: Functional assay-cAMP synthesis, luciferase reporter in HEK293 cells co-transfected with GLP-1 receptor; assay type: cell-based; conditions: for Percent Potency Relative to Native Ligand GLP-1Rec: relative to native GLP-1; for GLP 1 Receptor Relative Potency (%): Table 11, relative to GLP-1-VKGG30 (SEQ ID NO: 527) = 100
T2 construct: expressed in transfected cells; host or cells: HEK293

[1] = read-out: cAMP Induction Glucagon Receptor EC50, Table 3, pegylated glucagon analogs
[2] = Glucagon Receptor EC50(nM), Table 10, GLP-1 17-26 glucagon analogs

T2 sequence (P43220 24-463, species assumed): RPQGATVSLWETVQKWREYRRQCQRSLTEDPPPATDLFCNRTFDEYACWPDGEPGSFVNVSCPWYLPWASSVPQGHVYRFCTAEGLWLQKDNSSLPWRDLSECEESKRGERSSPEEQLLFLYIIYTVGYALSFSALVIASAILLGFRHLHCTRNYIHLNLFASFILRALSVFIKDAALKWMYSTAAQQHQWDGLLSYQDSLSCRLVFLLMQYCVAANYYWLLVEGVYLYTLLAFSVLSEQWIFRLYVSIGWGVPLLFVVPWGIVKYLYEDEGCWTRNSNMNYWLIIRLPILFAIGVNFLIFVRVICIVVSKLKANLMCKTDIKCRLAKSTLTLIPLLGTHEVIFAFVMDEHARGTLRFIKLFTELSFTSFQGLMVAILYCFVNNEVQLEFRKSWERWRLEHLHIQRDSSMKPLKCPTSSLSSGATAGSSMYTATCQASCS
T1 sequence (P47871 26-477): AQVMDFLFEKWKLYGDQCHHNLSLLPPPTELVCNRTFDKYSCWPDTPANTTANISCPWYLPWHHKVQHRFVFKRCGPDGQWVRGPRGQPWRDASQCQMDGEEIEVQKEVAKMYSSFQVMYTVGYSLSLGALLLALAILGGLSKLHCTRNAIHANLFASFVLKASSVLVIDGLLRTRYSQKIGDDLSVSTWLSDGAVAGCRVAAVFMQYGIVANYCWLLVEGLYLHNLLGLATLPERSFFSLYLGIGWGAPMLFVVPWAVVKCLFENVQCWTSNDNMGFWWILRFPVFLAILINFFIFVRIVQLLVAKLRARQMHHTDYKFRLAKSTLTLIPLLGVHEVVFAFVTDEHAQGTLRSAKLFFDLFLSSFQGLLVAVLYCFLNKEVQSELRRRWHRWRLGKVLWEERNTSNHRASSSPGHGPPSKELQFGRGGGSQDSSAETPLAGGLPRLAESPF

## Glucagon Cys^29 Mal-PEG-5K [Glucagon C29 PEG 5K]
Glucagon receptor; [1]
  EC50: 0.96 ± 0.07 nM

## CSCC[C@H](NC(=O)[C@H](CC(C)C)NC(=O)[C@H](Cc1c[nH]c2ccccc12)NC(=O)[C@H](CCC(N)=O)NC(=O)[C@@H](NC(=O)[C@H](Cc1ccccc1)NC(=O)[C@H](CC(=O)O)NC(=O)[C@H](CCC(N)=O)NC(=O)[C@H](C)NC(=O)[C@H](CCCNC(=N)N)NC(=O)[C@H](CCCNC(=N)N)NC(=O)[C@H](CO)NC(=O)[C@H](CC(=O)O)NC(=O)[C@H](CC(C)C)NC(=O)[C@H](Cc1ccc(O)cc1)NC(=O)[C@H](CCCCN)NC(=O)[C@H](CO)NC(=O)[C@H](Cc1ccc(O)cc1)NC(=O)[C@H](CC(=O)O)NC(=O)[C@H](CO)NC(=O)[C@@H](NC(=O)[C@H](Cc1ccccc1)NC(=O)[C@@H](NC(=O)CNC(=O)[C@H](CCC(N)=O)NC(=O)[C@H](CO)NC(=O)[C@@H](N)Cc1c[nH]cn1)[C@@H](C)O)[C@@H](C)O)C(C)C)C(=O)N[C@@H](CC(=O)O)C(=O)NCC(=O)NCC(=O)N1CCC[C@H]1C(=O)N[C@@H](CO)C(=O)N[C@@H](CO)C(=O)NCC(=O)N[C@@H](C)C(=O)N1CCC[C@H]1C(=O)N1CCC[C@H]1C(=O)N1CCC[C@H]1C(=O)N[C@@H](CO)C(N)=O [-MDGG^30 PSSGAPPPS (SEQ ID NO: 525)]
GLP-1 receptor
  EC50: 0.13 nM

## X1SQGT FTSDYSKYLD EQAAK EFIC*W LMNTa [Chimera DMIA1, Cys24 (SEQ ID NO: 519)]
Glucagon receptor
  Parent w/PEG % Potency Relative to Native GR: 6.9%
  Parent w/o PEG % Potency Relative to Native GR: 28.9%
GLP-1 receptor; Table 12, pegylated peptide
  Parent w/PEG % Potency Relative to Native GLP-1R: 19.3%
GLP-1 receptor; Table 12, peptide without PEG
  Parent w/o PEG % Potency Relative to Native GLP-1R: 64.5%

## Glucagon Cys^17 Mal-PEG-5K [Glucagon C17 PEG 5K]
Glucagon receptor; [1]
  EC50: 0.82 ± 0.15 nM

## HX2QGT FTSDY SKYLD ERAAK DFVC*W LMNGG PSSGA PPPSa (H[Aib]QGTFTSDYSKYLDERAAKDFVC(PEG)WLMNGGPSSGAPPPS-NH2; reading uncertain) [X2=AIB; C* is Cys attached to PEG in the tested form]
Glucagon receptor
  Parent w/PEG % Potency Relative to Native GR: 0.1%
GLP-1 receptor; Table 12, pegylated peptide
  Parent w/PEG % Potency Relative to Native GLP-1R: 88.5%

## HSQGTFTSDYSKYLDEQAAKEFIEWLVKG-NH2 [E16 GLP(17-29)-NH2 E24, K28]
Glucagon receptor; [2]
  EC50: 0.23 nM
GLP-1 receptor
  EC50: 0.007 nM

## SEQ ID NO: 22: glucagon analog substituting the native glutamine at position 3 with glutamic acid
GLP-1 receptor; versus glucagon receptor
  selectivity for the GLP-1 receptor: approximately a tenfold selectivity

## HSQGTFTSDYSKYLDERRAKDFVQW LMNTa [E16, K20 Gluc-NH2] (HSQGTFTSDYSKYLDERRAKDFVQWLMNT-NH2)
Glucagon receptor; Table 5
  Percent Potency Relative to Native Ligand GRec: 130.1%
Glucagon receptor; Table 9, E16/lactam analogs
  Percent Potency Relative to Native Ligand GRec: 130.1%
GLP-1 receptor; Table 5
  Percent Potency Relative to Native Ligand GLP-1Rec: 41.5%
GLP-1 receptor; Table 9, E16/lactam analogs
  Percent Potency Relative to Native Ligand GLP-1Rec: 41.5%

## HX2QGT FTSDY SKYLD ERRAK DFVC*W LMNTa (H[Aib]QGTFTSDYSKYLDERRAKDFVCWLMNT-NH2; lactam (positions not given here); also: optional PEG on Cys24) [X2=AIB; C* is Cys or Cys attached to PEG]
Glucagon receptor
  Parent w/PEG % Potency Relative to Native GR: 15.8%
  Parent w/o PEG % Potency Relative to Native GR: 108.3%
GLP-1 receptor
  Parent w/PEG % Potency Relative to Native GLP-1R: 31.0%
  Parent w/o PEG % Potency Relative to Native GLP-1R: 96.9%

## HSQGTFTSDYSKYLDERRAKDFVQW LMNTa [E16K20 Gluc-NH2 Lac] (HSQGTFTSDYSKYLDERRAKDFVQWLMNT-NH2; lactam 16-20; N-terminus assumed; SMILES CSCC[C@H](NC(=O)[C@H](CC(C)C)NC(=O)[C@H](Cc1c[nH]c2ccccc12)NC(=O)[C@H](CCC(N)=O)NC(=O)[C@@H](NC(=O)[C@H](Cc1ccccc1)NC(=O)[C@H](CC(=O)O)NC(=O)[C@@H]1CCCCNC(=O)CC[C@H](NC(=O)[C@H](CC(=O)O)NC(=O)[C@H](CC(C)C)NC(=O)[C@H](Cc2ccc(O)cc2)NC(=O)[C@H](CCCCN)NC(=O)[C@H](CO)NC(=O)[C@H](Cc2ccc(O)cc2)NC(=O)[C@H](CC(=O)O)NC(=O)[C@H](CO)NC(=O)[C@@H](NC(=O)[C@H](Cc2ccccc2)NC(=O)[C@@H](NC(=O)CNC(=O)[C@H](CCC(N)=O)NC(=O)[C@H](CO)NC(=O)[C@@H](N)Cc2c[nH]cn2)[C@@H](C)O)[C@@H](C)O)C(=O)N[C@@H](CCCNC(=N)N)C(=O)N[C@@H](CCCNC(=N)N)C(=O)N[C@@H](C)C(=O)N1)C(C)C)C(=O)N[C@@H](CC(N)=O)C(=O)N[C@H](C(N)=O)[C@@H](C)O)
Glucagon receptor; Table 9, E16/lactam analogs
  Percent Potency Relative to Native Ligand GRec: 180.8%
GLP-1 receptor; Table 9, E16/lactam analogs
  Percent Potency Relative to Native Ligand GLP-1Rec: 63.0%

## HX2QGT FTSDYSKYLDEQAAKEFIAWLMNGGPSSGAPPPSC*a (H[Aib]QGTFTSDYSKYLDEQAAKEFIAWLMNGGPSSGAPPPSC-NH2; also: optional PEG on Cys40) [X2=AIB; C* is Cys or Cys attached to PEG]
Glucagon receptor
  Parent w/PEG % Potency Relative to Native GR: 0.3%
  Parent w/o PEG % Potency Relative to Native GR: 2.2%
GLP-1 receptor; Table 12, pegylated peptide
  Parent w/PEG % Potency Relative to Native GLP-1R: 68.8%
GLP-1 receptor; Table 12, peptide without PEG
  Parent w/o PEG % Potency Relative to Native GLP-1R: 359.1%

## Oxyntomodulin C24 PEG 20K: oxyntomodulin Cys24 pegylated with 20K PEG
Glucagon receptor; read-out: cAMP Induction Glucagon Receptor EC50, Table 2, analogs with C-terminus extension
  EC50: 0.97 ± 0.04 nM

## CSCC[C@H](NC(=O)[C@H](CC(C)C)NC(=O)[C@H](Cc1c[nH]c2ccccc12)NC(=O)[C@H](CCC(N)=O)NC(=O)[C@@H](NC(=O)[C@H](Cc1ccccc1)NC(=O)[C@H](CC(=O)O)NC(=O)[C@H](CCC(N)=O)NC(=O)[C@H](C)NC(=O)[C@H](CCCNC(=N)N)NC(=O)[C@H](CCCNC(=N)N)NC(=O)[C@H](CO)NC(=O)[C@H](CC(=O)O)NC(=O)[C@H](CC(C)C)NC(=O)[C@H](Cc1ccc(O)cc1)NC(=O)[C@H](CCCCN)NC(=O)[C@H](CO)NC(=O)[C@H](Cc1ccc(O)cc1)NC(=O)[C@H](CC(=O)O)NC(=O)[C@H](CO)NC(=O)[C@@H](NC(=O)[C@H](Cc1ccccc1)NC(=O)[C@@H](NC(=O)CNC(=O)[C@H](CCC(N)=O)NC(=O)[C@H](CO)NC(=O)[C@@H](N)Cc1c[nH]cn1)[C@@H](C)O)[C@@H](C)O)C(C)C)C(=O)N[C@@H](CC(N)=O)C(=O)NCC(=O)NCC(=O)N1CCC[C@H]1C(=O)N[C@@H](CO)C(=O)N[C@@H](CO)C(=O)NCC(=O)N[C@@H](C)C(=O)N1CCC[C@H]1C(=O)N1CCC[C@H]1C(=O)N1CCC[C@H]1C(=O)N[C@@H](CO)C(N)=O [-MNGG^30 PSSGAPPPS (SEQ ID NO: 522)]
GLP-1 receptor
  EC50: 0.31 nM
  GLP 1 Receptor Relative Potency (%): 8%

## CSCC[C@H](NC(=O)[C@H](CC(C)C)NC(=O)[C@H](Cc1c[nH]c2ccccc12)NC(=O)[C@H](CCC(N)=O)NC(=O)[C@@H](NC(=O)[C@H](Cc1ccccc1)NC(=O)[C@H](CC(=O)O)NC(=O)[C@H](CCCCN)NC(=O)[C@H](C)NC(=O)[C@H](CCCNC(=N)N)NC(=O)[C@H](CCCNC(=N)N)NC(=O)[C@H](CCC(=O)O)NC(=O)[C@H](CC(=O)O)NC(=O)[C@H](CC(C)C)NC(=O)[C@H](Cc1ccc(O)cc1)NC(=O)[C@H](CCCCN)NC(=O)[C@H](CO)NC(=O)[C@H](Cc1ccc(O)cc1)NC(=O)[C@H](CC(=O)O)NC(=O)[C@H](CO)NC(=O)[C@@H](NC(=O)[C@H](Cc1ccccc1)NC(=O)[C@@H](NC(=O)CNC(=O)[C@H](CCC(N)=O)NC(=O)[C@H](CO)NC(=O)[C@@H](N)Cc1c[nH]cn1)[C@@H](C)O)[C@@H](C)O)C(C)C)C(=O)N[C@@H](CC(=O)O)C(=O)NCC(=O)NCC(=O)N1CCC[C@H]1C(=O)N[C@@H](CO)C(=O)N[C@@H](CO)C(=O)NCC(=O)N[C@@H](C)C(=O)N1CCC[C@H]1C(=O)N1CCC[C@H]1C(=O)N1CCC[C@H]1C(=O)N[C@@H](CO)C(N)=O
GLP-1 receptor
  EC50: 0.02 nM

## HSQGTFTSDYSKYLDEQAAKEFIAWLMNT-NH2 [E16 GLP(17-26)Glu(27-29)-NH2, HSQGTFTSDYSKYLDEQAAKEFIAW LMNTa]
Glucagon receptor; [2]
  EC50: 0.076 nM

## Glucagon Cys^24 maleimido,PEG-3.4K-dimer [Glucagon C24 Dimer]
Glucagon receptor; [1]
  EC50: 0.1 ± 0.05 nM

## CC[C@H](C)[C@H](NC(=O)[C@H](Cc1ccccc1)NC(=O)[C@H](CCC(=O)O)NC(=O)[C@H](CCCCN)NC(=O)[C@H](C)NC(=O)[C@H](C)NC(=O)[C@H](CCC(N)=O)NC(=O)CNC(=O)[C@H](CCC(=O)O)NC(=O)[C@H](CC(C)C)NC(=O)[C@H](Cc1ccc(O)cc1)NC(=O)[C@H](CO)NC(=O)[C@H](CO)NC(=O)[C@@H](NC(=O)[C@H](CC(=O)O)NC(=O)[C@H](CO)NC(=O)[C@@H](NC(=O)[C@H](Cc1ccccc1)NC(=O)[C@@H](NC(=O)CNC(=O)[C@H](CCC(=O)O)NC(=O)[C@H](C)NC(=O)[C@@H](N)Cc1c[nH]cn1)[C@@H](C)O)[C@@H](C)O)C(C)C)C(=O)N[C@@H](C)C(=O)N[C@@H](Cc1c[nH]c2ccccc12)C(=O)N[C@@H](CC(C)C)C(=O)N[C@H](C(=O)N[C@@H](CCCCN)C(=O)NCC(=O)NCC(N)=O)C(C)C [GLP-1-VKGG^30 (SEQ ID NO: 527), HAEGTFTSDVSSYLEGQAAKEFIAW LVKGGa, reference compound]
GLP-1 receptor
  GLP 1 Receptor Relative Potency (%): 100%
GLP-1 receptor; read-out: GLP 1 Receptor EC50
  EC50: 0.025 nM
